Measured values from patent US20120156175A1.

Biological target: integrin alpha V beta 5 (human) (UniProt P06756)
Test: cell-based or functional assay

Sequence of UniProt P06756 (P06756 31-1048, chain 1 of 2): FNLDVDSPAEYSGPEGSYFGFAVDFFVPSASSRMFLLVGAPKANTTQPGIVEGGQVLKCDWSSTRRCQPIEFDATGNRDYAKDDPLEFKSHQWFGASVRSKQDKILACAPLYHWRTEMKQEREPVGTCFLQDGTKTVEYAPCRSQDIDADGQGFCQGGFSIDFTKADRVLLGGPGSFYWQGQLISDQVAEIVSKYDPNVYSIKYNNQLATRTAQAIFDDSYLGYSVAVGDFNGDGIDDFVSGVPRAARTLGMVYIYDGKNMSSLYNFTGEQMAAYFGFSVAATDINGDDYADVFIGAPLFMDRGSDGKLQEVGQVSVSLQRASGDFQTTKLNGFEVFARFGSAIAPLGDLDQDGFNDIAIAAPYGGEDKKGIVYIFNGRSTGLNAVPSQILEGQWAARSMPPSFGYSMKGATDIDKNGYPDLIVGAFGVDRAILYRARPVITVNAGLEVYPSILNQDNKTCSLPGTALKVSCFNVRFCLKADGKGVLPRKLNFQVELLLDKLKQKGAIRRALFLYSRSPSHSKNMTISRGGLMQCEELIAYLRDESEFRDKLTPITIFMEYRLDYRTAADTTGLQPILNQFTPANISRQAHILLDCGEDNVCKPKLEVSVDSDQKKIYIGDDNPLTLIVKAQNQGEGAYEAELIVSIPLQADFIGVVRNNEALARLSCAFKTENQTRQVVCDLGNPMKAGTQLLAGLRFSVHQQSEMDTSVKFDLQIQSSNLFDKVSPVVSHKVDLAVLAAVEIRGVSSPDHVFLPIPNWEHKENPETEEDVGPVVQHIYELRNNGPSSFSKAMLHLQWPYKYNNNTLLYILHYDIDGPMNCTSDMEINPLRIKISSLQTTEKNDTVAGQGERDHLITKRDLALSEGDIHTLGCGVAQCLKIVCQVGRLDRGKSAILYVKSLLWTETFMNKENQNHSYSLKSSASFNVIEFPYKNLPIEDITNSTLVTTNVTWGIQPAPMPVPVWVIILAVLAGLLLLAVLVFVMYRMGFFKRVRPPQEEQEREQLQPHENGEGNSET
Sequence of UniProt P06756 (P18084 24-799, chain 2 of 2, further chain): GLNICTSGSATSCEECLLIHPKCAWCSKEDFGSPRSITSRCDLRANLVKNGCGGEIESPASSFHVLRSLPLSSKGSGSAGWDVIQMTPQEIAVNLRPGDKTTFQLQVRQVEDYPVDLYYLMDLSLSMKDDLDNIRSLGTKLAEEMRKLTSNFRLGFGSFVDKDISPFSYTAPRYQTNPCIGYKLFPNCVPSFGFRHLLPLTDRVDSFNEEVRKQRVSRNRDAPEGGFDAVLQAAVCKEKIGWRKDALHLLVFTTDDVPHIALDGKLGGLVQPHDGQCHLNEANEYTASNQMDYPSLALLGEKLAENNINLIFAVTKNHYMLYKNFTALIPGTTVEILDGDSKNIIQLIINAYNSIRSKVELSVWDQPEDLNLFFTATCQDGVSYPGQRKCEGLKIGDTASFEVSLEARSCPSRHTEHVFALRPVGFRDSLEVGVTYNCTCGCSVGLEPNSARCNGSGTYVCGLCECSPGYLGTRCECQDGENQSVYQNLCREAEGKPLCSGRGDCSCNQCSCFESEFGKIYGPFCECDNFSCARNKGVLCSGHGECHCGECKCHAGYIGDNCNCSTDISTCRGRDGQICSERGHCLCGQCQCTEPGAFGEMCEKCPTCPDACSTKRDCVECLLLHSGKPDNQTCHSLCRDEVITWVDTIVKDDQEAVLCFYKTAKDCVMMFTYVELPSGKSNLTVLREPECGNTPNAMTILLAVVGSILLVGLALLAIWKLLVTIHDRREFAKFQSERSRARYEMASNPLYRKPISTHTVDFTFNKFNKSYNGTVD

Substance “periostin (from UniProt Q15063 22-779) (ligand)” has an ability to induce the migration of neural stem cells (Boyden chamber assay, HB1.F3 cells, against cells not treated with periostin) of 100%.
